Source: the DeepSol protein solubility set

Assay: soluble on expression in E. coli; label from the status in PepcDB or PDB records

MAHHHHHHMAQCLTWQVLDQRQTGECLDAVDLEALRAVIKRIDDDRDGALLHSSERTATQVNVLLDLYGHLVLFAKASQFSPFKTSTLFGIVHRVHEASIADRLSRFHSYDLLRELVVRHSVHRPPYSTMVFSVREVQDIDTYMMSTYYRHYKMYVYCFVPREVASLRTVMLNDTAEAPPAQLPPLSAAIREDAWKEKMQEKVRTLEEAEMEEQLIVSDAVSEAQKNAATLDNSRFMAGISAQLEAIRDAVSTKSSERLDLIEEKLTAIEAKVNEAQSSGNRSRQGSRGSSKRK
soluble on expression in E. coli: soluble

MAHHHHHHMDLFNCQYCSISPFDYILDYLYGDTSSKKEEKKKKSNITYDDSSSNNVSQVVSKIDEEIEKRTTNEILLLCRAWENYVHPRAKEYWKDSQQLQNILCKIANGITKNDDPILGDDYACVFWYGDKNKNDNCPIISVKKGNDNIETITYVNRVLIFLYADEASFQELQKKPKKAFTMACGNTNCINLTHISLDD
soluble on expression in E. coli: not soluble

MGSDKIHHHHHHMPINSFENYPMTWKPKLDNRKPPIYKTLAMLLEEDIKRGNLNPGDKLPPQRELADFLDLNLSTITRAFKLCEEKGLICAKVGKGTFISSDVNVSNTLLYQTESKDIIELGTVHPPYEQNTYIIDFIKNVLKQPEMDRFLQYMSPSGTYMQKKSIAKWIERNNVYTSEENILLSTGGQNAICATLLGLFKAGDRIATDSLSFSGIKSIAKMIGIQLVPIPQENNEISIEYLESYCKNENIKGIYLIPDYHNPTTHTMSDLSRKKIAKIAKQYNIIIIEDAINSIFRDGIQTPIFSLASDNTIYIFSTSKFLCAGLRVAFVVAPKRYIENLENALYNMNLMVSPFTAEIVHRLLYSPIIDKIIEEKRDAIIERNEVADKVLSDYNLIGDKNCSFRWLLLPDELDGKSFEISAKNLGVQVYCAERFSVGNSTVPKAVRICVTAPKDVEELEKGLNIIKSLLKS
soluble on expression in E. coli: not soluble

MSSSEGNSDASAPGTPVKSSTPSSRGSSPDSPKKQEPSKKRAILNESDDDDDSRPAPRQLSDSSDDNIHPRGGGEKSSPGAGGGLFGDLSGSSDDDSDREGKPKESNTRARLSDSDAESRGSLNDLQGIVMANPDEIDEDEKAKEHVHDTEMVTGRVTLEYAADPPHFVRMPNFLSVATHPFDPQHYEEDEDDEQAKLDDEGRTRLKLRVENTLRWRVRKDENGKEIRESNAKIVKWDDGTMSLYLGNEIFEVSLVPLNSNNLPHLYVKQPTLMSAQAVLTHRMTFRPHSTDSQTHRKVTLNMADRSRKNAQVKVMDDVGQNPEITRRENARKEEESLRAHIRRTQMVRNNFKVRGPRYAGQYSDDEDMPTSSRKGKKKEAPIIGASSESEDDHADTTKKSGSDSDSDEEYRKRKQQQKKQIVTSDEESD
soluble on expression in E. coli: not soluble

MRKVRVGIWGFGAMGIGMANMILKKEGIEIVSVCSRSTSGKSMYDVLGIERGERPEVIINKNYEEVFREKSVDVVLLATDSFTKKAFDKIIFLLNRKINVISTAEQMAYPQADDADLAKKMDEVAKENGVSILGTGINPGFVLDLLVLALSGTCEEVTSIKAKRVNDLSPFGKSVMVEQGVGVTREEFIKGVEDKTIAGHVGFVESINMIADGLGWKLDKIEQTKEPIMTTVDRKSKYGEALAGNVAGCRQCGYGYVNGEVLIEMEHPQQIIPEAEGIKTGDYVSIKGIPNIDLQINPEIPGGVGTYAMIVNSIPLIINARPGLKTMLDIPVPRAIMGDIRNQIEVELEEESKAN
soluble on expression in E. coli: not soluble

MEDFKSGDLILGYYKVLEKLGEGNFGKVYKVEALKGRYKGKVFALKVASNPYSVHYLWKEAQTLILFHHQNIVSLQSYLYKKDKKELYLIYEYMDFGTLKDYVEKKGKLSPEEALKVLRHVVNALEYLHSRGYIHSDLKPENVFGKRVLGGVLWKLGDFSLVRIRGDVSIIDVKGTIGFIAPEIFRGEIHRSSDIYSLGCLTLYMLTGKVPFEGKDFKERKEKNKRGEVEIPEEIPGKLKDLLERMLEVDYKRRFRTARELKEYMVKEGLI
soluble on expression in E. coli: soluble

MDFQHWLHEAVNQLRDSDSPRRDAEILLEYVTGKGRTYIMAFGETPLTDVQQQQLADLLQRRKQGEPIAYLTGLREFWSLPLFVSPATLIPRPDTECLVEQALARLPVKTCRILDLGTGTGAIALALACERPDCEVTAVDRMPDAVALAIRNAEHLAIRNVRILQSCWFSALSGQQFDMIVSNPPYIDAQDPHLSEGDVRFEPRSALVADENGMADLTHIIDNARQMLTPGGFLLLEHGWQQGEAVRAVFRRSGYSDVETCRDYGGNERVTCGRFTP
soluble on expression in E. coli: not soluble
